From the supplement of paper PMC7125110
± gives the standard error. For some of these results: This sample holds only a part of the variants without activity.

B1: glmS ribozyme (parent)
chain: AUAAAAGCGCCAGAACUACAGAAAUGUAGUUGACGAGGAGGAGGUUUAUCGAAUUUUCGGCGGAUGCCUCCAAA

Columns and labels:
Settings in all cases: with glucosamine-6-phosphate
glucosamine-6-phosphate [1] = variants of: B1; experiment: kcat; higher = faster cleavage; RNA array
Procedure, shortened: (§1)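 Glucosamine-6-phosphate, from 40 μM to 10 mM in HEPES/KCl/Mg(OAc)2 buffer, was flowed over sequenced MiSeq chips carrying barcoded ribozyme variants transcribed in situ by E. coli RNA polymerase. A hybridised Cy3 probe tracked the variants at 37 °C as tiles were imaged over ~14 h. kobs, kcat and KM were obtained by fitting normalised per-tile medians to exponential decays and then applying weighted Michaelis–Menten fits across concentrations.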

glucosamine-6-phosphate [2] = variants of: B1; experiment: KM; higher = weaker cofactor use; RNA array
Procedure, shortened: as §1

glucosamine-6-phosphate [3] = variants of: B1; experiment: self-cleavage kobs at 40 uM GlcN6P; higher = faster cleavage; RNA array
Procedure, shortened: as §1

glucosamine-6-phosphate [4] = variants of: B1; experiment: self-cleavage kobs at 160 uM GlcN6P; higher = faster cleavage; RNA array
Procedure, shortened: as §1

glucosamine-6-phosphate [5] = variants of: B1; experiment: self-cleavage kobs at 640 uM GlcN6P; higher = faster cleavage; RNA array
Procedure, shortened: as §1

glucosamine-6-phosphate [6] = variants of: B1; experiment: self-cleavage kobs at 2500 uM GlcN6P; higher = faster cleavage; RNA array
Procedure, shortened: as §1

glucosamine-6-phosphate [7] = variants of: B1; experiment: self-cleavage kobs at 10000 uM GlcN6P; higher = faster cleavage; RNA array
Procedure, shortened: as §1

| Variant | kcat (glucosamine-6-phosphate [1]) | KM (glucosamine-6-phosphate [2]) | self-cleavage kobs at 40 uM GlcN6P (glucosamine-6-phosphate [3]) | self-cleavage kobs at 160 uM GlcN6P (glucosamine-6-phosphate [4]) | self-cleavage kobs at 640 uM GlcN6P (glucosamine-6-phosphate [5]) | self-cleavage kobs at 2500 uM GlcN6P (glucosamine-6-phosphate [6]) | self-cleavage kobs at 10000 uM GlcN6P (glucosamine-6-phosphate [7]) |
| --- | --- | --- | --- | --- | --- | --- | --- |
| G41A U46A | 0.000569 ± 0.0001 s⁻¹ | 1480 ± 630 µM | 3.02e-05 ± 1.4e-05 s⁻¹ | 4.5e-05 ± 1.2e-05 s⁻¹ | 0.000168 ± 4.6e-05 s⁻¹ | 0.000531 ± 7.8e-05 s⁻¹ | 0.000462 ± 4.9e-05 s⁻¹ |
| G40U U47C | 0.00133 ± 0.00022 s⁻¹ | 2010 ± 550 µM | 3.24e-05 ± 8.9e-06 s⁻¹ | 0.000104 ± 2.3e-05 s⁻¹ | 0.000287 ± 3.6e-05 s⁻¹ | 0.000958 ± 0.00014 s⁻¹ | 0.00106 ± 0.00013 s⁻¹ |
| A39U C58G | 0.000106 ± 3.3e-06 s⁻¹ | 9290 ± 520 µM | – | – | – | 2.25e-05 ± 1e-05 s⁻¹ | 5.48e-05 ± 1.2e-05 s⁻¹ |
| G40A A53U | 0.00621 ± 0.0028 s⁻¹ | – | 0.00015 ± 1.5e-05 s⁻¹ | 0.000422 ± 0.00011 s⁻¹ | 0.00107 ± 0.00016 s⁻¹ | 0.00268 ± 0.00057 s⁻¹ | 0.00711 ± 0.001 s⁻¹ |
| G40A C50G | < 1e-05 s⁻¹ | – | – | – | – | – | – |
| G41U A48U | 5.64e-05 ± 5.9e-06 s⁻¹ | 2530 ± 840 µM | – | – | – | – | 4.45e-05 ± 1.4e-05 s⁻¹ |
| G41C U56G | 0.000101 ± 5.7e-06 s⁻¹ | 2280 ± 390 µM | – | – | 2.47e-05 ± 1e-05 s⁻¹ | 4.78e-05 ± 1.5e-05 s⁻¹ | 8.29e-05 ± 1.2e-05 s⁻¹ |
| G40A A42G | 0.00697 ± 0.0023 s⁻¹ | 1900 ± 820 µM | 0.000182 ± 2.4e-05 s⁻¹ | 0.00046 ± 9.7e-05 s⁻¹ | 0.00157 ± 0.00024 s⁻¹ | 0.00363 ± 0.00075 s⁻¹ | 0.00783 ± 0.0018 s⁻¹ |
| A39G G41U | 0.0014 ± 8.3e-05 s⁻¹ | 1410 ± 140 µM | 3.41e-05 ± 9.8e-06 s⁻¹ | 0.000143 ± 2.9e-05 s⁻¹ | 0.000467 ± 8.1e-05 s⁻¹ | 0.000965 ± 0.00021 s⁻¹ | 0.00119 ± 0.00016 s⁻¹ |
| A39G U65G | 0.0131 ± 0.0026 s⁻¹ | 3200 ± 790 µM | 0.000177 ± 2.2e-05 s⁻¹ | 0.00068 ± 0.00014 s⁻¹ | 0.00161 ± 0.00039 s⁻¹ | 0.00553 ± 0.0018 s⁻¹ | 0.0103 ± 0.0015 s⁻¹ |
| G40A G66C | 0.000903 ± 0.00019 s⁻¹ | 2220 ± 740 µM | 3.77e-05 ± 1.3e-05 s⁻¹ | 6.89e-05 ± 1.1e-05 s⁻¹ | 0.000166 ± 3.2e-05 s⁻¹ | 0.00045 ± 8.6e-05 s⁻¹ | 0.000774 ± 9.9e-05 s⁻¹ |
| G40C U55A | 9.7e-05 ± 1.9e-05 s⁻¹ | – | – | 0.000138 ± 6.6e-05 s⁻¹ | 0.000125 ± 2.3e-05 s⁻¹ | 7.26e-05 ± 1.4e-05 s⁻¹ | 0.000133 ± 2.8e-05 s⁻¹ |
| A39C U56A | 0.00331 ± 0.00086 s⁻¹ | 4000 ± 1500 µM | 5.87e-05 ± 1.3e-05 s⁻¹ | 0.000129 ± 3.6e-05 s⁻¹ | 0.000412 ± 5.2e-05 s⁻¹ | 0.00133 ± 0.00019 s⁻¹ | 0.00238 ± 0.00034 s⁻¹ |
| G40C U69C | 7.37e-05 ± 2.1e-05 s⁻¹ | – | – | – | – | 5.5e-05 ± 1.1e-05 s⁻¹ | 5.63e-05 ± 1.4e-05 s⁻¹ |
| G41A U54C | 0.000448 ± 5.8e-05 s⁻¹ | 1810 ± 510 µM | – | – | 0.00013 ± 2.5e-05 s⁻¹ | 0.000223 ± 4.7e-05 s⁻¹ | 0.0004 ± 5.8e-05 s⁻¹ |
| G40A C68U | 5.12e-05 ± 6.5e-06 s⁻¹ | – | < 1e-05 s⁻¹ | – | – | 4.58e-05 ± 1e-05 s⁻¹ | 4.59e-05 ± 5.4e-06 s⁻¹ |
| G40A C50U U54C C68U | < 1e-05 s⁻¹ | – | < 1e-05 s⁻¹ | < 1e-05 s⁻¹ | – | – | < 1e-05 s⁻¹ |
| G41C C71G | 6.73e-05 ± 1.3e-05 s⁻¹ | – | – | – | – | 6.12e-05 ± 7.2e-06 s⁻¹ | 5.71e-05 ± 4.9e-06 s⁻¹ |
| G40C C61U | < 1e-05 s⁻¹ | – | < 1e-05 s⁻¹ | < 1e-05 s⁻¹ | < 1e-05 s⁻¹ | – | – |
| G41A A48U | 4.08e-05 ± 6.1e-06 s⁻¹ | – | < 1e-05 s⁻¹ | < 1e-05 s⁻¹ | – | 3.76e-05 ± 1.1e-05 s⁻¹ | 3.63e-05 ± 1e-05 s⁻¹ |
| A39C G66C | 0.00165 ± 0.00036 s⁻¹ | 2780 ± 960 µM | 3.24e-05 ± 1.1e-05 s⁻¹ | 7.03e-05 ± 1.6e-05 s⁻¹ | 0.000348 ± 6.6e-05 s⁻¹ | 0.00104 ± 0.00017 s⁻¹ | 0.0012 ± 0.00016 s⁻¹ |
| A39C G66U | 0.00114 ± 0.00017 s⁻¹ | 3090 ± 910 µM | – | 8.13e-05 ± 2.3e-05 s⁻¹ | 0.000198 ± 3.9e-05 s⁻¹ | 0.000424 ± 8.2e-05 s⁻¹ | 0.000908 ± 9.9e-05 s⁻¹ |
| G40U C70G | 0.000495 ± 8.8e-05 s⁻¹ | 1770 ± 560 µM | 2.91e-05 ± 7.3e-06 s⁻¹ | 4.28e-05 ± 7.1e-06 s⁻¹ | 0.000121 ± 1e-05 s⁻¹ | 0.000346 ± 3.4e-05 s⁻¹ | 0.000404 ± 3.4e-05 s⁻¹ |
| G40U C70U | 0.00235 ± 0.00039 s⁻¹ | 2200 ± 510 µM | 5.55e-05 ± 7.2e-06 s⁻¹ | 0.000139 ± 1.4e-05 s⁻¹ | 0.000566 ± 6.5e-05 s⁻¹ | 0.00132 ± 0.00013 s⁻¹ | 0.00186 ± 0.0002 s⁻¹ |
| G40C C71G | 0.0271 ± 0.0085 s⁻¹ | 1170 ± 420 µM | 0.000948 ± 8.7e-05 s⁻¹ | 0.0028 ± 0.00046 s⁻¹ | 0.00953 ± 0.0017 s⁻¹ | 0.0203 ± 0.0057 s⁻¹ | – |
| A39C U55A | 0.00799 ± 0.0028 s⁻¹ | 2790 ± 1400 µM | 0.000201 ± 4.2e-05 s⁻¹ | 0.000429 ± 7.8e-05 s⁻¹ | 0.00143 ± 0.00023 s⁻¹ | 0.00295 ± 0.00058 s⁻¹ | 0.00755 ± 0.0012 s⁻¹ |
| A39U U54C | 0.0342 ± 0.014 s⁻¹ | – | 0.000447 ± 5e-05 s⁻¹ | – | 0.00436 ± 0.00054 s⁻¹ | 0.00989 ± 0.0032 s⁻¹ | 0.0285 ± 0.0042 s⁻¹ |
| G40A G41A U55G | 8.3e-05 ± 7.3e-06 s⁻¹ | 578 ± 220 µM | – | – | 4.12e-05 ± 1.4e-05 s⁻¹ | 7.85e-05 ± 2.1e-05 s⁻¹ | 7.52e-05 ± 1.5e-05 s⁻¹ |
